# Results published in publication PMC13083842 (Communications Biology, 2026).
# B1: tocilizumab-TGN 1:25 (antibody, V domains shown)
# VH: QVQLQESGPGLVRPSQTLSLTCTVSGYSITSDHAWSWVRQPPGRGLEWIGYISYSGITTYNPSLKSRVTMLRDTSKNQFSLRLSSVTAADTAVYYCARSLARTTAMDYWGQGSLVTVSS
# VL: DIQMTQSPSSLSASVGDRVTITCRASQDISSYLNWYQQKPGKAPKLLIYYTSRLHSGVPSRFSGSGSGTDFTFTISSLQPEDIATYYCQQGNTLPYTFGQGTKVEIK
# notes: as the heavy chain of m6; as the light chain of m6; Heterogeneous conjugate; See m6 for the DrugBank ids; also called the 1:25 variant; source: HEK293T, transfected, purified (Protein A, SEC), then conjugated with Tris-GalNAc-PEG5-sulfo-NHS ester at 1:25
# B2: siltuximab (antibody, V domains shown)
# VH: EVQLVESGGKLLKPGGSLKLSCAASGFTFSSFAMSWFRQSPEKRLEWVAEISSGGSYTYYPDTVTGRFTISRDNAKNTLYLEMSSLRSEDTAMYYCARGLWGYYALDYWGQGTSVTVSS
# VL: QIVLIQSPAIMSASPGEKVTMTCSASSSVSYMYWYQQKPGSSPRLLIYDTSNLASGVPVRFSGSGSGTSYSLTISRMEAEDAATYYCQQWSGYPYTFGGGTKLEIK
# notes: heavy chain of siltuximab, chimeric (human-murine) anti-IL-6 antibody; light chain of siltuximab; Full-length IgG; also called wildtype siltuximab; unmodified siltuximab; source: HEK293T, transfected, purified from supernatant (Protein A, SEC); copies: 2 + 2
# B3: siltuximab-TGN 1:10 (antibody, V domains shown)
# VH: B2 VH
# VL: B2 VL
# notes: as the heavy chain of m1; as the light chain of m1; Heterogeneous conjugate; See m1 for the DrugBank ids; also called TGN-modified siltuximab variant 1:10; source: HEK293T, transfected, purified (Protein A, SEC), then conjugated with Tris-GalNAc-PEG5-sulfo-NHS ester at 1:10; copies: 2 + 2
# B4: siltuximab-TGN 1:25 (antibody, V domains shown)
# VH: B2 VH
# VL: B2 VL
# notes: as the heavy chain of m1; as the light chain of m1; Heterogeneous conjugate; See m1 for the DrugBank ids; also called the 1:25 variant; source: HEK293T, transfected, purified (Protein A, SEC), then conjugated with Tris-GalNAc-PEG5-sulfo-NHS ester at 1:25; copies: 2 + 2
# B5: siltuximab-TGN 1:5 (antibody, V domains shown)
# VH: B2 VH
# VL: B2 VL
# notes: as the heavy chain of m1; as the light chain of m1; Heterogeneous conjugate; See m1 for the DrugBank ids; also called TGN-modified siltuximab variant 1:5; source: HEK293T, transfected, purified (Protein A, SEC), then conjugated with Tris-GalNAc-PEG5-sulfo-NHS ester at 1:5; copies: 2 + 2
# B6: siltuximab-TGN 1:1 (antibody, V domains shown)
# VH: B2 VH
# VL: B2 VL
# notes: as the heavy chain of m1; as the light chain of m1; Heterogeneous conjugate; See m1 for the DrugBank ids; also called TGN-modified siltuximab variant 1:1; source: HEK293T, transfected, purified (Protein A, SEC), then conjugated with Tris-GalNAc-PEG5-sulfo-NHS ester at 1:1; copies: 2 + 2
# Target: T1, soluble IL-6 receptor (sIL-6R) (human (from the printed accession …, UniProt P08887))
# T1 construct: interleukin-6 receptor (IL-6R), soluble variant, residues 20-355, UniProt P08887; Two versions were made: 1; C-terminal His9-Tag; 2; C-terminal Twin-Strep-Tag, 3xGS-Linker and TEV cleavage site; Only the ELISA on sASGPR (anti-His-HRP detection) tells that the His9 version was used; Strongly and heterogeneously glycosylated; also called wild-type sIL-6R; unmodified sIL-6R; source: Expi293F, …
# Test: SPR; IL-6R amine-coupled on a CM5 chip (Biacore T200); tocilizumab variants as analytes, multi-cycle kinetics, 0.39 to 100 nM; global fit, 1:1 model
# Conditions: both partners purified
row,fold weaker affinity than wildtype tocilizumab [fold],Binder
1,≤ 5,B1

# Target: T2, interleukin-6 (IL-6) (human, UniProt P05231)
# T2 construct: interleukin-6, human; A biotinylated IL-6 was used in the cell uptake assays; for SPR and ELISA the IL-6 was amine-coupled or coated
# Test: SPR; IL-6 amine-coupled on a CM5 chip (Biacore T200); analytes in multi-cycle kinetics, 0.39 to 100 nM, 30 µL/min, 180 s association, 1200 s dissociation, HBS-N + 10 mM CaCl2; global fit, 1:1 model; where koff was below the detection limit KD was estimated from kon and the theoretical maximum koff
# Conditions: both partners purified
# T2 sequence (P05231 30-212): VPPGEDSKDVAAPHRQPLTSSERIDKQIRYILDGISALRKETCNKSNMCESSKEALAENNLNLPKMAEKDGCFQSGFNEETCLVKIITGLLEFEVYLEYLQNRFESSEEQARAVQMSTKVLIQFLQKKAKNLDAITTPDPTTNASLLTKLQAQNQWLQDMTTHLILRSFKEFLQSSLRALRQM
Kd [nM],koff [s⁻¹],kon [M⁻¹ s⁻¹],Binder
< 0.045,< 1e-05,445000,B2
< 0.045,< 1e-05,,B3
< 0.045,< 1e-05,221000,B4
< 0.045,< 1e-05,,B5
< 0.045,< 1e-05,,B6
